Reference: patent US20050136049A1 (TRUBION PHARMACEUTICALS, published 2005)

Molecular target: T1, CD137 (4-1BB) (human, UniProt Q07011 24-255)
T1 construct: whole, on cells; also called CD137 on stimulated human PBMC
Assay: flow immunocytofluorimetry, hybridoma supernatant on anti-CD3 stimulated human PBMC, FITC goat anti-mouse IgG
Text: Binding of 5B9 scFv IgG fusion protein or 5B9 murine monoclonal antibody was detected with FITC conjugated anti-human IgG or anti-mouse IgG, respectively.

T1 sequence (Q07011 24-255): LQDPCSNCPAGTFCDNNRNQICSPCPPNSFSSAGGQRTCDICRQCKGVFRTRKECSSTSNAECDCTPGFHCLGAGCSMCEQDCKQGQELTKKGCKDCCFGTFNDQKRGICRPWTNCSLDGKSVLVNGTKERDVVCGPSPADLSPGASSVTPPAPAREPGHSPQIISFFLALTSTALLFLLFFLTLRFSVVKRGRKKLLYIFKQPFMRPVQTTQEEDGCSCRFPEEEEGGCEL

B1: 5B9 monoclonal antibody (antibody, V domains shown)
VH: QVQLKQSGPGLVQSSQSLSITCTVSGFSLTTYAVHWVRQSPGKGLEWLGVIWSGGITDYNAAFISRLSITKDDSKSQVFFKMNSLQPNDTAIYYCARNGGDNYPYYYAMDYWGQGTSVTVSS
VL: DIVMTQAAFSNPVTLGTSASISCRSSKSLLHSNGITYLYWYLQKPGQSPQLLIYQMSNLASGVPDRFSSSGSGTDFTLRISRVEAEDVGVYYCAQNLELPLTFGAGTKLELKR
notes: also called 5B9 murine monoclonal antibody
Q: Does B1 bind?
A: Result: binds
